# Experimental data as given in patent US11994512B2, “Single-cell genomic methods to generate ex vivo cell systems that recapitulate in vivo biology with improved fidelity” (Massachusetts Institute of Technology, priority 2018, dated 2024).
# B1: P48036 (protein, UniProt P48036 1-319, looked up)
# chain: MATRGTVTDFPGFDGRADAEVLRKAMKGLGTDEDSILNLLTSRSNAQRQEIAQEFKTLFGRDLVDDLKSELTGKFEKLIVAMMKPSRLYDAYELKHALKGAGTDEKVLTEIIASRTPEELSAIKQVYEEEYGSNLEDDVVGDTSGYYQRMLVVLLQANRDPDTAIDDAQVELDAQALFQAGELKWGTDEEKFITIFGTRSVSHLRRVFDKYMTISGFQIEETIDRETSGNLEQLLLAVVKSIRSIPAYLAETLYYAMKGAGTDDHTLIRVVVSRSEIDLFNIRKEFRKNFATSLYSMIKGDTSGDYKKALLLLCGGEDD
# modifications: full-length
# B2: P50543 (protein, UniProt P50543 1-98, looked up)
# chain: MPTETERCIESLIAVFQKYSGKDGNNTQLSKTEFLSFMNTELAAFTKNQKDPGVLDRMMKKLDLNCDGQLDFQEFLNLIGGLAIACHDSFIQTSQKRI
# modifications: full-length
# B3: P48756 (protein, UniProt P48756 1-144, looked up)
# chain: MVALKTCSLLLVLLFLAVGLGEKEEVEFRSHAKFAGPRPRGPRYAEGTFISDYSIAMDKIRQQDFVNWLLAQRGKKSDWKHNITQREARALVLAGQSQGKEDKEAQESSLPKSLSDDDVLRDLLIQELLAWMVDQTELCRLRSQ
# modifications: full-length
# B4: P48281 (protein, UniProt P48281 1-422, looked up)
# chain: MEAMAASTSLPDPGDFDRNVPRICGVCGDRATGFHFNAMTCEGCKGFFRRSMKRKALFTCPFNGDCRITKDNRRHCQACRLKRCVDIGMMKEFILTDEEVQRKREMIMKRKEEEALKDSLRPKLSEEQQHIIAILLDAHHKTYDPTYADFRDFRPPIRADVSTGSYSPRPTLSFSGDSSSNSDLYTPSLDMMEPASFSTMDLNEEGSDDPSVTLDLSPLSMLPHLADLVSYSIQKVIGFAKMIPGFRDLTSDDQIVLLKSSAIEVIMLRSNQSFTLDDMSWDCGSQDYKYDITDVSRAGHTLELIEPLIKFQVGLKKLNLHEEEHVLLMAICIVSPDRPGVQDAKLVEAIQDRLSNTLQTYIRCRHPPPGSHQLYAKMIQKLADLRSLNEEHSKQYRSLSFQPENSMKLTPLVLEVFGNEIS
# modifications: full-length
# B5: P51162 (protein, UniProt P51162 1-128, looked up)
# chain: MAFSGKYEFESEKNYDEFMKRLGLPGDVIERGRNFKIITEVQQDGQDFTWSQSYSGGNIMSNKFTIGKECEMQTMGGKKFKATVKMEGGKVVAEFPNYHQTSEVVGDKLVEISTIGDVTYERVSKRLA
# modifications: full-length
# B6: P43883 (protein, UniProt P43883 1-425, looked up)
# chain: MAAAVVDPQQSVVMRVANLPLVSSTYDLVSSAYVSTKDQYPYLRSVCEMAEKGVKTVTSAAMTSALPIIQKLEPQIAVANTYACKGLDRMEERLPILNQPTSEIVASARGAVTGAKDVVTTTMAGAKDSVASTVSGVVDKTKGAVTGSVERTKSVVNGSINTVLGMVQFMNSGVDNAITKSELLVDQYFPLTQEELEMEAKKVEGFDMVQKPSNYERLESLSTKLCSRAYHQALSRVKEAKQKSQETISQLHSTVHLIEFARKNMHSANQKIQGAQDKLYVSWVEWKRSIGYDDTDESHCVEHIESRTLAIARNLTQQLQTTCQTVLVNAQGLPQNIQDQAKHLGVMAGDIYSVFRNAASFKEVSDGVLTSSKGQLQKMKESLDEVMDYFVNNTPLNWLVGPFYPQSTEVNKASLKVQQSEVKAQ
# modifications: full-length
# B7: P43137 (protein, UniProt P43137 1-165, looked up)
# chain: MARNAYFILLSCLIVLSPSQGQEAEEDLPSARISCPEGSNAYSSYCYYFTEDRLTWADADLFCQNMNSGYLVSVLSQAEGNFVASLIKESGTTDANVWTGLHDPKRNRRWHWSSGSLFLYKSWATGSPNSSNRGYCVSLTSNTGYKKWKDDNCDAQYSFVCKFKG
# modifications: full-length
# B8: P50431 (protein, UniProt P50431 1-478, looked up)
# chain: MADRDATLWASHEKMLSQPLKDSDAEVYSIIKKESNRQRVGLELIASENFASRAVLEALGSCLNNKYSEGYPGQRYYGGTEFIDELEMLCQKRALQAYHLDPQCWGVNVQPYSGSPANFAVYTALVEPHGRIMGLDLPDGGHLTHGFMTDKKKISATSIFFESMPYKVYPETGYINYDQLEENASLFHPKLIIAGTSCYSRNLDYARLRKIADDNGAYLMADMAHISGLVAAGVVPSPFEHCHVVTTTTHKTLRGCRAGMIFYRKGVRSVDPKTGKETYYELESLINSAVFPGLQGGPHNHAIAGVAVALKQAMTTEFKIYQLQVLANCRALSDALTELGYKIVTGGSDNHLILMDLRSKGTDGGRAEKVLEACSIACNKNTCPGDKSALRPSGLRLGTPALTSRGLLEEDFQKVAHFIHRGIELTLQIQSHMATKATLKEFKEKLAGDEKIQSAVATLREEVENFASNFSLPGLPDF
# modifications: full-length
# B9: P40338 (protein, UniProt P40338 1-181, looked up)
# chain: MPRKAASPEEAAGEPGPEEMEAGRPRPVLRSVNSREPSQVIFCNRSPRVVLPLWLNFDGEPQPYPILPPGTGRRIHSYRGHLWLFRDAGTHDGLLVNQTELFVPSLNVDGQPIFANITLPVYTLKERCLQVVRSLVKPENYRRLDIVRSLYEDLEDYPSVRKDIQRLSQEHLESQHLEEEP
# modifications: full-length
# System: intracellular proteome of ENR+CD and ENR organoids
# Test: LC-MS/MS TMT proteomics of ENR+CD versus ENR organoids
# Assay type: cell-based, C57BL/6 mice
# Conditions: protein abundance, ENR+CD versus ENR organoids; aggregate of the four sample pairs
row,Molecule,Average logFC
1,B1,1.143
2,B2,1.372
3,B3,1.212
4,B4,−1.442
5,B5,−1.573
6,B6,1.236
7,B7,−2.852
8,B8,−1.162
9,B9,−1.533

# Same assay, conditions: protein abundance, ENR+CD versus ENR organoids; replicate M1-1; log2 ratio
row,Molecule,M1-1 Log2 Median Normalized
1,B1,1.196
2,B2,1.371
3,B3,1.21
4,B4,−1.589
5,B5,−0.519
6,B6,1.328
7,B7,−2.092
8,B8,−1.382
9,B9,−1.026

# Same assay, conditions: protein abundance, ENR+CD versus ENR organoids; replicate M1-2; log2 ratio
row,Molecule,M1-2 Log2 Median Normalized
1,B1,1.332
2,B2,1.475
3,B3,0.504
4,B4,−1.441
5,B5,−1.799
6,B6,1.122
7,B7,−3.168
8,B8,−1
9,B9,−1.492

# Same assay, conditions: protein abundance, ENR+CD versus ENR organoids; replicate M2-1; log2 ratio
row,Molecule,M2-1 Log2 Median Normalized
1,B1,1.1055
2,B2,1.4645
3,B3,1.2845
4,B4,−1.0795
5,B5,−2.7635
6,B6,0.9365
7,B7,−4.1035
8,B8,−1.1875
9,B9,−1.5695

# Same assay, conditions: protein abundance, ENR+CD versus ENR organoids; replicate M2-2; log2 ratio
row,Molecule,M2-2 Log2 Median Normalized
1,B1,0.94
2,B2,0.855
3,B3,1.769
4,B4,−1.499
5,B5,−1.209
6,B6,1.559
7,B7,−2.045
8,B8,−1.08
9,B9,−2.043

# Same assay, conditions: up = enriched in ENR+CD, down = enriched in ENR; FDR<0.05 and log fold change cut-off
row,Molecule,change
1,B1,up
2,B2,up
3,B3,up
4,B4,down
5,B5,down
6,B6,up
7,B7,down
8,B8,down
9,B9,down
